System: Escherichia coli TOP10
Experiment: shrunken log2 fold change of peptide-encoding DNA abundance (4.5 h post-induction vs induction); higher = less antimicrobial activity (less host growth inhibition)
Conditions: time post-induction: 4.5 h; library: site-saturation at positions 5, 18, 19, 20
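Note: peptides expressed intracellularly from a pBAD plasmid library in pooled LB shake-flask culture, induced with 0.3% L-arabinose, DNA abundance read by NGS, three biological replicates, DESeq2 with apeglm shrinkage.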

Sequence	shrunken log2 fold change
RRIRIRPPRLPRPRPRPVKAPRP	-0.0571
RRIRFRPPRLPRPRPRPLKFPRP	-0.544
RRIRWRPPRLPRPRPRPFRSPRP	-0.128
RRIRIRPPRLPRPRPRPISQPRP	-0.961
RRIRPRPPRLPRPRPRPVTPPRP	0.125
RRIRGRPPRLPRPRPRPKCIPRP	0.0819
RRIRSRPPRLPRPRPRPPPIPRP	0.572
RRIRPRPPRLPRPRPRPRMEPRP	0.197
RRIRDRPPRLPRPRPRPWREPRP	0.00581
RRIRDRPPRLPRPRPRPACSPRP	0.386
RRIRRRPPRLPRPRPRPCSLPRP	0.00239
RRIRWRPPRLPRPRPRPYCMPRP	-0.401
RRIRHRPPRLPRPRPRPHAQPRP	0.0272
RRIRTRPPRLPRPRPRPTCEPRP	0.125
RRIRKRPPRLPRPRPRPCIVPRP	-0.286
RRIRARPPRLPRPRPRPMQMPRP	0.626
RRIRSRPPRLPRPRPRPETFPRP	0.0203
RRIRLRPPRLPRPRPRPPGMPRP	0.197
RRIRCRPPRLPRPRPRPCRLPRP	-0.3
RRIRPRPPRLPRPRPRPRERPRP	0.121
RRIRERPPRLPRPRPRPFYLPRP	-0.648
RRIRSRPPRLPRPRPRPCGLPRP	0.00512
RRIRTRPPRLPRPRPRPLGYPRP	-0.213
RRIRERPPRLPRPRPRPPGIPRP	-0.0106
RRIRTRPPRLPRPRPRPVDWPRP	0.0292

Sequence	shrunken log2 fold change
RRIRVRPPRLPRPRPRPQAAPRP	0.0662
RRIRCRPPRLPRPRPRPSISPRP	-0.136
RRIRLRPPRLPRPRPRPETQPRP	0.00473
RRIRYRPPRLPRPRPRPFEPPRP	-0.343
RRIRFRPPRLPRPRPRPLQLPRP	-0.51
RRIRDRPPRLPRPRPRPDCPPRP	-0.0117
RRIRGRPPRLPRPRPRPMDRPRP	0.156
RRIRMRPPRLPRPRPRPSGWPRP	0.934
RRIRRRPPRLPRPRPRPWMSPRP	0.118
RRIRNRPPRLPRPRPRPEAVPRP	0.0335
RRIRRRPPRLPRPRPRPGHQPRP	0.342
RRIRPRPPRLPRPRPRPWQQPRP	-0.0467
RRIRGRPPRLPRPRPRPASEPRP	1.13
RRIRQRPPRLPRPRPRPICPPRP	0.128
RRIRIRPPRLPRPRPRPTPQPRP	-0.117
RRIRIRPPRLPRPRPRPQERPRP	-0.17
RRIRRRPPRLPRPRPRPDWGPRP	0.157
RRIRTRPPRLPRPRPRPGTLPRP	0.16
RRIRPRPPRLPRPRPRPIILPRP	-0.0642
RRIRCRPPRLPRPRPRPWRWPRP	0.568
RRIRIRPPRLPRPRPRPQEEPRP	0.0133
RRIRPRPPRLPRPRPRPPIVPRP	0.161
RRIRLRPPRLPRPRPRPLTQPRP	0.343
RRIRQRPPRLPRPRPRPRNQPRP	-0.329
RRIRMRPPRLPRPRPRPWTPPRP	0.28

Sequence	shrunken log2 fold change
RRIRERPPRLPRPRPRPGYVPRP	-0.227
RRIRVRPPRLPRPRPRPQMMPRP	-0.0693
RRIRNRPPRLPRPRPRPHGQPRP	-0.0642
RRIRQRPPRLPRPRPRPTAWPRP	0.591
RRIRHRPPRLPRPRPRPHTKPRP	-0.0831
RRIRNRPPRLPRPRPRPCLGPRP	-0.219
RRIRERPPRLPRPRPRPLGMPRP	-0.294
RRIRERPPRLPRPRPRPSMDPRP	-0.355
RRIRSRPPRLPRPRPRPATQPRP	0.168
RRIRERPPRLPRPRPRPVEKPRP	-0.0163
RRIRRRPPRLPRPRPRPTIYPRP	-0.1
RRIRYRPPRLPRPRPRPGWIPRP	-0.328
RRIRYRPPRLPRPRPRPRSDPRP	-0.113
RRIRARPPRLPRPRPRPNVHPRP	0.0927
RRIRQRPPRLPRPRPRPFNVPRP	-0.375
RRIRIRPPRLPRPRPRPGWGPRP	0.308
RRIRTRPPRLPRPRPRPYLAPRP	-0.378
RRIRVRPPRLPRPRPRPDGTPRP	-0.161
RRIRCRPPRLPRPRPRPPGFPRP	0.822
RRIRPRPPRLPRPRPRPPYDPRP	-0.173
RRIRVRPPRLPRPRPRPCSHPRP	-0.246
RRIRIRPPRLPRPRPRPDQNPRP	0.0467
RRIRERPPRLPRPRPRPGPLPRP	-0.127
RRIRNRPPRLPRPRPRPEWHPRP	-0.285
RRIRHRPPRLPRPRPRPPYMPRP	-0.539

Sequence	shrunken log2 fold change
RRIRARPPRLPRPRPRPPLPPRP	0.762
RRIRGRPPRLPRPRPRPDHHPRP	-0.0187
RRIRVRPPRLPRPRPRPFCAPRP	0.00539
RRIRARPPRLPRPRPRPCCLPRP	0.0817
RRIRRRPPRLPRPRPRPYYQPRP	-0.617
RRIRERPPRLPRPRPRPNIDPRP	-0.0761
RRIRMRPPRLPRPRPRPHEAPRP	0.0628
RRIRCRPPRLPRPRPRPLQCPRP	-0.279
RRIRNRPPRLPRPRPRPQRIPRP	-0.47
RRIRSRPPRLPRPRPRPEPIPRP	0.312
RRIRMRPPRLPRPRPRPHHTPRP	-0.263
RRIRERPPRLPRPRPRPQAIPRP	-0.0062
RRIRRRPPRLPRPRPRPAFKPRP	0.291
RRIRFRPPRLPRPRPRPQVVPRP	-0.152
RRIRFRPPRLPRPRPRPWMWPRP	-0.0253
RRIRDRPPRLPRPRPRPDSQPRP	-0.0289
RRIRRRPPRLPRPRPRPCYDPRP	-0.194
RRIRFRPPRLPRPRPRPMIGPRP	0.0266
RRIRHRPPRLPRPRPRPTVDPRP	-0.0548
RRIRRRPPRLPRPRPRPDFCPRP	-0.0293
RRIRVRPPRLPRPRPRPNRLPRP	0.0105
RRIRQRPPRLPRPRPRPENNPRP	-0.331
RRIRGRPPRLPRPRPRPDWVPRP	0.287
RRIRGRPPRLPRPRPRPNHSPRP	0.195
RRIRNRPPRLPRPRPRPSMHPRP	-0.805

Sequence	shrunken log2 fold change
RRIRMRPPRLPRPRPRPEAYPRP	0.036
RRIRDRPPRLPRPRPRPAYYPRP	-0.947
RRIRLRPPRLPRPRPRPSRWPRP	-0.279
RRIRGRPPRLPRPRPRPKNAPRP	1.91
RRIRPRPPRLPRPRPRPISLPRP	-0.427
RRIRFRPPRLPRPRPRPEIRPRP	0.0106
RRIRSRPPRLPRPRPRPYCRPRP	-0.512
RRIRKRPPRLPRPRPRPFNAPRP	0.0749
RRIRMRPPRLPRPRPRPIQRPRP	0.544
RRIRDRPPRLPRPRPRPQAKPRP	-0.0241
RRIRGRPPRLPRPRPRPPCEPRP	0.433
RRIRMRPPRLPRPRPRPMMHPRP	-0.0538
RRIRQRPPRLPRPRPRPYSIPRP	0.098
RRIRNRPPRLPRPRPRPGQRPRP	0.00993
RRIRSRPPRLPRPRPRPTMTPRP	0.391
RRIRARPPRLPRPRPRPEPKPRP	1.36
RRIRTRPPRLPRPRPRPSNFPRP	-0.0603
RRIRMRPPRLPRPRPRPEKHPRP	0.921
RRIRCRPPRLPRPRPRPRNIPRP	-0.33
RRIRTRPPRLPRPRPRPCTFPRP	-0.241
RRIRWRPPRLPRPRPRPHFSPRP	-0.205
RRIRGRPPRLPRPRPRPIDSPRP	0.00395
RRIRMRPPRLPRPRPRPASLPRP	-0.0145
RRIRTRPPRLPRPRPRPIKQPRP	-0.0342
RRIRNRPPRLPRPRPRPGLTPRP	-0.0698

Sequence	shrunken log2 fold change
RRIRERPPRLPRPRPRPHQIPRP	-0.372
RRIRTRPPRLPRPRPRPYQIPRP	-0.0573
RRIRTRPPRLPRPRPRPMIFPRP	-0.738
RRIRYRPPRLPRPRPRPHSIPRP	-0.311
RRIRTRPPRLPRPRPRPMPWPRP	0.253
RRIRGRPPRLPRPRPRPNRYPRP	0.0443
RRIRLRPPRLPRPRPRPEMEPRP	-0.0177
RRIRERPPRLPRPRPRPEWNPRP	-0.197
RRIRVRPPRLPRPRPRPRLRPRP	0.311
RRIRYRPPRLPRPRPRPQGTPRP	0.034
RRIRQRPPRLPRPRPRPMLRPRP	-0.138
RRIRNRPPRLPRPRPRPYYGPRP	-0.105
RRIRFRPPRLPRPRPRPYPEPRP	-0.488
RRIRDRPPRLPRPRPRPQDGPRP	0.0175
RRIRYRPPRLPRPRPRPYWLPRP	-1.14
RRIRVRPPRLPRPRPRPWVLPRP	0.054
RRIRERPPRLPRPRPRPGQDPRP	-0.0237
RRIRVRPPRLPRPRPRPHMMPRP	-0.659
RRIRSRPPRLPRPRPRPNTWPRP	-0.637
RRIRQRPPRLPRPRPRPEAHPRP	0.0944
RRIRARPPRLPRPRPRPGTVPRP	0.336
RRIRFRPPRLPRPRPRPCTTPRP	-0.381
RRIRTRPPRLPRPRPRPAFIPRP	-0.512
RRIRTRPPRLPRPRPRPSIIPRP	-0.647
RRIRVRPPRLPRPRPRPVGRPRP	0.542
